# Measurements from patent US11819552B2, “Antibody-drug conjugates targeting uPARAP” (RIGSHOSPITALET, priority 2016, dated 2023).
# Entries after “also recorded” stand apart in the source; their conditions may differ.
# T1: mouse uPARAP (Mus musculus, UniProt Q64449)
# T1 sequence (Q64449 31-1479): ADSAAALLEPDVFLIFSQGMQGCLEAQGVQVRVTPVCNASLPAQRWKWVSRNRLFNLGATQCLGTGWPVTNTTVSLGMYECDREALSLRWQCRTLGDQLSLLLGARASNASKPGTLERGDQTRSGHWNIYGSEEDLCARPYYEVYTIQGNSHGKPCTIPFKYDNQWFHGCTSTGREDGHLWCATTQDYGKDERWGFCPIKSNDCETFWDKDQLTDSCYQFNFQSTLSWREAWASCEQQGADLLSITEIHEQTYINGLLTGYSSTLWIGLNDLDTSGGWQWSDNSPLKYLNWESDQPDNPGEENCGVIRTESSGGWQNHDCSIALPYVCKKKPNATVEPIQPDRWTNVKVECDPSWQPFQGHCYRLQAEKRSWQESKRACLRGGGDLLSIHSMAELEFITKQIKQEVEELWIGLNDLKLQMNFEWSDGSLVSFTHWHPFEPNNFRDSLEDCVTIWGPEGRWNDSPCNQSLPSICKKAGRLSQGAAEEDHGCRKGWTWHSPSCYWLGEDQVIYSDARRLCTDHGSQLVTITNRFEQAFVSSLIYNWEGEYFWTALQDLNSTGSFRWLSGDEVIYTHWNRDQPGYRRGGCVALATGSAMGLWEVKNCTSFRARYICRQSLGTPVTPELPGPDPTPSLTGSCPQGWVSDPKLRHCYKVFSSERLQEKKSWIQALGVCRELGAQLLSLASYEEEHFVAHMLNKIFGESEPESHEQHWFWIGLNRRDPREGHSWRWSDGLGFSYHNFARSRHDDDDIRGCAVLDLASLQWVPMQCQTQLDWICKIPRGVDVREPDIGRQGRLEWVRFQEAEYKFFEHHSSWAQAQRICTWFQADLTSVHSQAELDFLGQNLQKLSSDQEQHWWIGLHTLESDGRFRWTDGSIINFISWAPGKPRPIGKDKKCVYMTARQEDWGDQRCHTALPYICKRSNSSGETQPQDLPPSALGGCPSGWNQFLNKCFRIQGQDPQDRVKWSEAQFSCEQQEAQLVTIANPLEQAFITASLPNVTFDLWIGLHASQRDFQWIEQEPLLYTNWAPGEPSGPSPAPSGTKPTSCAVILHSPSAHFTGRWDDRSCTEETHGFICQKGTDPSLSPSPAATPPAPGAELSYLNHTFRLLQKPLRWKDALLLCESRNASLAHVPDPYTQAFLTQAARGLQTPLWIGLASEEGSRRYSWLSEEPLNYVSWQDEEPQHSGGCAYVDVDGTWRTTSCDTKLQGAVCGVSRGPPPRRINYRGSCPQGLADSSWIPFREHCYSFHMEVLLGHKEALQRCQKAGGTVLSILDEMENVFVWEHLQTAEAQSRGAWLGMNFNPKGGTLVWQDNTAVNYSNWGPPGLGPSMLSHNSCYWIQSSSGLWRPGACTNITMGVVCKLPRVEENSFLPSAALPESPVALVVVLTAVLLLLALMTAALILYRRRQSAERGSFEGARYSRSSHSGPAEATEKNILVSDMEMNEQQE
# B1: mAb 2h9: mouse monoclonal IgG1k anti-uPARAP antibody clone 2.h.9: F12, produced by hybridoma cell culture (protein)
# light: DIQMTQSPASQSASLGESVTITCLASQTIGTWLAWYQQKPGKSPQLLIYAATTLTDGVPSRFSGAGSGTKFSLKISSLQAEDFASYFCQEFFSTPFTFGSGTKLELKRADAAPTVSIFPPSSEQLTSGGASVVCFLNNFYPKDINVKWKIDGGERQNGVLNSWTDQDSKDSTYSMSSTLTLTKDEYERHNSYTCEATHKTSTSPIVKSFNRNEC
# heavy: QVQLQQPGTELVRPGLSVKLSCKASGYTFTSYWMNWVKQRPGQGLEWIGMIHPSNDEKRINQKFKDKATLTVDKFSSTVYMQVSSPTSEDSAVYYCARGGGDYVGDYALDFWGQGTSVTVSSAKTTPPSVYPLAPGSAAQTNSMVTLGCLVKGYFPEPVTVTWNSGSLSSGVHTFPAVLQSDLYTLSSSVTVPSSTWPSETVTCNVAHPASSTKVDKKIVPRDCGCKPCICTVPEVSSVFIFPPKPKDVLTITLTPKVTCVVVDISKDDPEVQFSWFVDDVEVHTAQTQPREEQFNSTFRSVSELPIMHQDWLNGKEFKCRVNSAAFPAPIEKTISKTKGRPKAPQVYTIPPPKEQMAKDKVSLTCMITDFFPEDITVEWQWNGQPAENYKNTQPIMDTDGSYFIYSKLNVQKSNWEAGNTFTCSVLHEGLHNHHTEKSLSHSPGK
# Target: T1, mouse uPARAP
# Experiment: Antibody reactivity with uPARAP
# Format: binding
# Settings: listed as 2h9
molecule,measurement,value
B1,Reactivity with mouse uPARAP,reactive against both human and murine uPARAP; also recorded: reacts with both human and mouse uPARAP
